Experimental data reported in PMC2723102 (2009).
Where no end group is shown, it is not given here. [ ]: non-standard residue; d: D form. pY = N[C@@H](Cc1ccc(OP(=O)(O)O)cc1)C(=O)O; pT = C[C@@H](OP(=O)(O)O)[C@H](N)C(=O)O

B1: strep-tag AID peptide phosphorylated on Tyr-682 (peptide)
chain: VMLKKKQYTSIHHGVVEVDAAVTPEERHLSKMQQNG[pY]ENPTYKFFEQMQN
modifications: also: strep-tag, place not given here
B2: strep-tag AID peptide phosphorylated on Thr-668 (peptide)
chain: VMLKKKQYTSIHHGVVEVDAAV[pT]PEERHLSKMQQNGYENPTYKFFEQMQN
modifications: also: strep-tag, position not given here
B3: strep-tag AID peptide phosphorylated on Thr-668 and Tyr-682 (peptide)
chain: VMLKKKQYTSIHHGVVEVDAAV[pT]PEERHLSKMQQNG[pY]ENPTYKFFEQMQN
modifications: also: strep-tag, place not given here
B4: strep-tag AID peptide (APP intracellular domain, last 50 amino acids of APP), non-phosphorylated (peptide)
chain: VMLKKKQYTSIHHGVVEVDAAVTPEERHLSKMQQNGYENPTYKFFEQMQN
modifications: also: strep-tag, position not given here

What was measured:
Experiment in all cases: SPR
[1] = target: GST-Grb2 domain (GST-SH2 recombinant protein)
Chain of GST-Grb2 domain (GST-SH2 recombinant protein) (chain, as listed by the source): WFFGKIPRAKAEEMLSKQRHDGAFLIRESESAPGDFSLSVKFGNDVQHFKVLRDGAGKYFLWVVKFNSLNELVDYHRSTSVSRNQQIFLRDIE

[2] = target: T1, GST-X11β (domain)
T1 chain: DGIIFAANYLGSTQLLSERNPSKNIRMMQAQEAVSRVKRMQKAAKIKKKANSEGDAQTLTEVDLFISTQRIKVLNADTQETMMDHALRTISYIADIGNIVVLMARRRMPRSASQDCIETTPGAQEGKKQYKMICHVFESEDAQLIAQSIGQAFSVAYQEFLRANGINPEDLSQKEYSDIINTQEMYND

[3] = target: T2, GST-NUMB-p71 (region with the PTB domain)
T2 chain: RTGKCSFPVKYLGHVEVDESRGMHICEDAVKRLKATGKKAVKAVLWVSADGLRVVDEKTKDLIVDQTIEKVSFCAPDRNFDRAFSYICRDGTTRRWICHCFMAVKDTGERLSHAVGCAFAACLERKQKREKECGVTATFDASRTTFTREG

| Kd [1] | Kd [2] | Kd [3] | Binder |
| --- | --- | --- | --- |
| 2.57 nM | – | – | B1 |
| – | 33.5 nM | – | B2 |
| 0.413 nM | 13.1 nM | – | B3 |
| – | 8.48 nM | 105 nM | B4 |
